{"source": "paper PMC12655427", "key": {"[1]": {"target": "recombinant soluble human FcRn variant FcRn-F2A (FcRn heavy α-chain extracellular domain with β2-microglobulin) (human) (UniProt P55899)", "test": "BLI; Octet RED96e; FcRn loaded at 5 µg/mL on HIS1K (anti-penta-HIS) biosensors; antibody 900 as analyte at 89.9 nM; global 1:1 model; pH 6.0–6.1"}, "[2]": {"target": "recombinant soluble human FcRn variant FcRn-E2A (FcRn heavy α-chain extracellular domain with β2-microglobulin) (human) (UniProt P55899)", "test": "BLI; Octet RED96e; FcRn loaded at 5 µg/mL on HIS1K (anti-penta-HIS) biosensors; antibody 900 as analyte at 89.9 nM; global 1:1 model; pH 6.0–6.1"}, "[3]": {"target": "recombinant soluble human FcRn variant FcRn-P2A (FcRn heavy α-chain extracellular domain with β2-microglobulin) (human) (UniProt P55899)", "test": "BLI; Octet RED96e; FcRn loaded at 5 µg/mL on HIS1K (anti-penta-HIS) biosensors; antibody 900 as analyte at 89.9 nM; global 1:1 model; pH 6.0–6.1"}, "[4]": {"target": "recombinant soluble human FcRn variant FcRn-F2A (FcRn heavy α-chain extracellular domain with β2-microglobulin) (human) (UniProt P55899)", "test": "BLI; Octet RED96e; FcRn loaded at 5 µg/mL on HIS1K (anti-penta-HIS) biosensors; antibody 900 as analyte at 89.9 nM; global 1:1 model; pH 7.4–7.5"}, "[5]": {"target": "recombinant soluble human FcRn variant FcRn-E2A (FcRn heavy α-chain extracellular domain with β2-microglobulin) (human) (UniProt P55899)", "test": "BLI; Octet RED96e; FcRn loaded at 5 µg/mL on HIS1K (anti-penta-HIS) biosensors; antibody 900 as analyte at 89.9 nM; global 1:1 model; pH 7.4–7.5"}, "[6]": {"target": "recombinant soluble human FcRn variant FcRn-P2A (FcRn heavy α-chain extracellular domain with β2-microglobulin) (human) (UniProt P55899)", "test": "BLI; Octet RED96e; FcRn loaded at 5 µg/mL on HIS1K (anti-penta-HIS) biosensors; antibody 900 as analyte at 89.9 nM; global 1:1 model; pH 7.4–7.5"}}, "data": [{"substance": "antibody 900 (variable regions of the light and heavy chains of the murine antibody 9E2 fused to the Fc fragment of human IgG1 with M252Y, S254T, T256E, E333A, H433K/N434F) (Fc fusion)", "values": [{"measurement": "Kd", "setting": "[1]", "result": 4.13, "unit": "nM"}, {"measurement": "Kd", "setting": "[2]", "result": 3.46, "unit": "nM"}, {"measurement": "Kd", "setting": "[3]", "result": 3.15, "unit": "nM"}, {"measurement": "Kd", "setting": "[4]", "result": 14.3, "unit": "nM"}, {"measurement": "Kd", "setting": "[5]", "result": 15.8, "unit": "nM"}, {"measurement": "Kd", "setting": "[6]", "result": 17.3, "unit": "nM"}]}]}
